According to US20250019430A1 (SEOUL NATIONAL UNIVERSITY HOSPITAL, published 2025):

T1: murine resistin (#450-28) from peprotech (mouse, UniProt Q99P87 21-114)
T1 construct: Bought; also called mouse antigen; mouse resistin antigen
T1 sequence (looked up): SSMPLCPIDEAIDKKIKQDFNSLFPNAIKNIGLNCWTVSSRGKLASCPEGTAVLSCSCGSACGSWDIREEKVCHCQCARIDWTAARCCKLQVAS

T2: resistin antigen (UniProt Q9HD89 19-108, limits assumed)
T2 construct: Used for the Octet assays and the monophage ELISAs, where only 'resistin antigen' is printed; tags not known; also called resistin antigen protein
T2 sequence (looked up): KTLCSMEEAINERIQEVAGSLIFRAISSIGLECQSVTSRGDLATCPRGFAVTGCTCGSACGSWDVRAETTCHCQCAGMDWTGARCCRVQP

B1: RETN-5A2 (antibody, human IgG1, V domains shown)
VH: QVQLVQSGAEGRKPGSSVKVSCKVSGDTFSSYAISWVRQAPGQGLEWMGGIIPIFGAADYAQKFKGRVTISADESTSTAYMELSSLRSEDTAVYYCAKGPDYYGSFDPWGQGTLITVSS
VL: DIQMTQSPSFLSASVGDRVTITCRASQYIGTYLAWYQQQPGKAPKLLIYGASILQNGVPSRFSGSASGTEFTLTISSLQPEDFATYYCQQADSFPLTFGGGTKVDIKR
notes: Human antibody from scFv phage library, converted to IgG and made in HEK293F cells; also called parent antibody 5A2; resistin 5A2 parent antibody
B2: RETN-5A2_LS_2F11 (antibody, human IgG1, V domains shown)
VH: B1 VH
VL: DIQMTQSPSSLSASVGDRVTITCRASQSIGTYLNWYQQKPGKAPKLLIYDASSLEDGVPSRFSGSGSGTDFTLTISSLQPEDSATYYCQQSYTMPLYTFGQGTKLEIKR
notes: Light chain shuffled variant of RETN-5A2, tested as IgG
B3: RETN-5A2_LS_1F11 (antibody, human IgG1, V domains shown)
VH: B1 VH
VL: not shown
notes: as for B2
B4: RETN-5A2_LS_2H10 (antibody, human IgG1, V domains shown)
VH: B1 VH
VL: NFMLTQPASVSGSPGQSITISCTGSSSDVGGYNYVTWYQQHPGKAPQLIIYDVTKRPSGVSNRFSGSKSGNSASLTISGLQAEDEADYYCSSYSSSTFYVFGTGTKVTVLR
notes: as for B2
B5: RETN-5A2_LS_2E10 (antibody, human IgG1, V domains shown)
VH: B1 VH
VL: DIQMTQSPSSLSASVGDRVTITCRTSQTITNYLNWYQQKPGRAPKLLIFDASNLETGVPSRFSGSGSGTDFTLTISSLQPEDFATYFCQQSYNPGYTFGQGTKLEIKR
notes: as for B2
B6: RETN-5A2_LS_2D07 (antibody, human IgG1, V domains shown)
VH: B1 VH
VL: QSALTQPASVSGSPGQSVTISCTGTSSDIGRYNRVSWYQHHPGKAPKLIIYDVSNRPSGVSNRFSGSKSGNTASLTISGLQAGDESDYYCSAYTRSSTWVFGGGTKLTVLR
notes: as for B2
B7: RETN-5A2_LS_2G03 (antibody, human IgG1, V domains shown)
VH: B1 VH
VL: DIQMTQSPSSLSASVGDRVTITCQASQHVSSYLNWYQQKPGKAPKLLIYAASNLQSGVPSRFSGSGSGTDFTLTISSLQPDDFATYYCQQYDSYSSVYTFGPGTKLDIKR
notes: as for B2
B8: RETN-5A2_LS_2B02 (antibody, human IgG1, V domains shown)
VH: B1 VH
VL: DIQMTQSPGTLSLSAGERATLSCRASQSVRGSYLAWYQQKPGQAPRLLIYGTSSRAPGIPDRFSGSGSGTDFTLTISSLEPEDFAVYYCQQRGDWLYTFGQGTKVEIKR
notes: as for B2

What was measured:
[1] = biological target: T1, murine resistin (#450-28) from peprotech; assay: ELISA, coated murine resistin
Description: The mouse antigen was murine resistin (#450-28) from peprotech. Mouse antigen was diluted to 10 nM in DPBS in 96-well immune plates (NUNC, 439454) at 100 μl per well, and coated for 16 hours at 4° C. It was then blocked with skim milk diluted 4% in PBS for 1 hour at 37° C. Antibody proteins were diluted in 1% skim milk diluted in PBS to 1, 10, and 100 nM, respectively, at 100 μl per well and incubated for 2 hours at 37° C. After washing with PBS-T, anti-human Fc-HRP (Pierce® Peroxidase Conjugated Goat Anti-Human IgG FC (thermo fisher scientific, 31413)) was diluted at 1:10,000 dilution and reacted for 1 hour at 37° C. as a secondary antibody. After PBS-T washing, 100 μl of TMB (sigma, T0440) solution was applied to each well for a 10 min substrate reaction. After 10 minutes, the substrate reaction was stopped by treating each well with 50 μl of 1N H₂SO₄ and measured at 490 nm using a spectrophotometer (thermo fisher scientific, 51119200).

[2] = biological target: T2, resistin antigen; assay: Octet, resistin antigen on the biosensor, antibody in solution
Source text: To investigate the affinity between the antibody and the resistin antigen, the Octet (Forte bio) system, which enables real-time investigation of ligand-receptor binding using a biosensor, was used. The system is an instrument that binds resistin antigen protein to a biosensor, flows antibody through it, and optically analyzes the degree of antibody binding to the antigen bound to the sensor, measuring the level of antibody binding to the antigen with high sensitivity at the light wavelength level. The affinity for the resistin antigen was expressed as Kₒₙ (association constants, binding rate) and Kdis (dissociation constants, dissociation rate) between the receptor and ligand, and KD (equilibrium dissociation constant) for the reaction of binding and dissociation.

Row | Binder | binding result [1] | Kd [2]
1 | B1 | no binding (tested: antibody at 1, 10 and 100 nM) | ≤ 1 nM
2 | B2 | – | ≤ 1 nM
3 | B3 | – | ≤ 1 nM
4 | B4 | – | ≤ 1 nM
5 | B5 | – | ≤ 1 nM
6 | B6 | – | ≤ 1 nM
7 | B7 | – | ≤ 1 nM
8 | B8 | – | ≤ 1 nM
